4 molecules from US20110091386A1 (GENE TECHNO SCIENCE, published 2011) can be followed below.

Experiment [1] addresses T1, hOPN5 peptide CVDTYDGRGDSVVYGLRS conjugated to bovine serum albumin (human, N-terminal Cys coupled to BSA (via EMCS in section 6.2)).
T1 construct: also called hOPN5-BSA; hOPN-BSA
T1 peptide: CVDTYDGRGDSVVYGLRS
Kind of experiment: ELISA, hOPN5-BSA coated at 1 ug/ml, HRP anti-human gamma chain, A405. On the procedure:
The affinity of humanized 35B6 IgG1/κ was compared to that of chimeric 35B6 IgG1/κ by ELISA. As an antigen, synthetic oligopeptide ([…] (SEQ ID NO:79) conjugated to bovine serum albumin (hOPN5-BSA) was used. In a typical experiment, an ELISA plate was coated with 100 μl/well of 1 μg/ml hOPN-BSA in PBS overnight at 4° C., washed with Wash Buffer, and blocked with 300 μl/well of Blocking Buffer for 1 hr at room temperature. After washing with Wash Buffer, 100 μl/well of samples appropriately diluted in ELISA Buffer were applied to the ELISA plate. After incubating the ELISA plate overnight at 4° C. and washing with Wash Buffer, bound antibodies were detected using 100 μl/well of 1/2,000-diluted HRP-conjugated goat anti-human γ chain polyclonal antibody (SouthernBiotech). After incubating for 1 hr at room temperature and washing with Wash Buffer, color development was performed by adding 100 μl/well of ABTS substrate and stopped with 100 μl/well of 2% oxalic acid. Absorbance was read at 405 nm. As shown in FIG. 41A-41B, the binding of humanized 35B6 IgG1/κ to hOPN5-BSA was similar to (FIG. 41A) or indistinguishable from (FIG. 41B) that of chimeric 35B6 IgG1/κ.

Experiment [2] addresses T2, peptide CGRGDS (human and murine, N-terminal Cys coupled to BSA via EMCS).
T2 construct: Synthetic peptide, BSA conjugate on the ELISA plate
T2 peptide: CGRGDS
Kind of experiment: ELISA, BSA-coupled peptide coated at 10 ug/ml. The text has this:
(§1) Peptides of amino acid sequence of […] (mOPN1) (SEQ ID NO:73), […] (mOPN5) (SEQ ID NO:71), […] (SEQ ID NO:74), CPNGRGD (SEQ ID NO:75), […] (SEQ ID NO: 76) […] (SEQ ID NO: 77), […] (SEQ ID NO:78) and […] (SEQ ID NO:72) which include murine OPN derived partial peptide, a peptide of amino acid sequence […] (SEQ ID NO:79) and […] (SEQ ID NO:80) which include human OPN derived partial peptide, and a peptide of amino acid sequence CGRGDS (SEQ ID NO:81) which include common peptide sequence of human OPN and murine OPN were coupled to BSA (Sigma corporation) via EMCS (Dojin) and used for ELISA.
(§2) A 96 well plate was immobilized with peptides (10 μg/ml) or proteins (5 μg/ml) by cultivating at 37° C. for an hour, blocked with 0.1% BSA/PBS/0.05% NaN₃ solution, and then reacted with various concentrations of antibodies at 37° C. for an hour. Next, the plate was reacted with HRP labeled anti-murine IgG antibody (Jackson ImmunoResearch Laboratories, Inc.) as secondary antibody at 37° C. for 30 minutes, added OPD as chromogen, added 1N H₂SO₄ to stop the reaction, and then detected absorbance at 490 nm.

Experiment [3] deals with T3, peptide CVDVPNGRGDS (murine, N-terminal Cys coupled to BSA via EMCS).
T3 construct: Synthetic peptide, BSA conjugate on the ELISA plate
T3 peptide: CVDVPNGRGDS
Briefly: ELISA, BSA-coupled peptide coated at 10 ug/ml.
Description: as §1, §2
On the technique in general: An ELISA detects its analyte on a solid surface through an enzyme-linked reagent.

The target in experiment [4] is T4, peptide CPNGRGD (murine, N-terminal Cys coupled to BSA via EMCS).
T4 construct: Synthetic peptide, BSA conjugate on the ELISA plate
T4 peptide: CPNGRGD
Briefly: ELISA, BSA-coupled peptide coated at 10 ug/ml.
Description: as §1, §2

The next experiment addresses T5, human osteopontin (human, UniProt P10451 17-314).
T5 construct: mature; Secreted recombinant protein; also called hOPN; human OPN
Kind of experiment: ELISA, protein coated at 5 ug/ml, HRP anti-murine IgG, A490. As to the method:
as §2, with “Binding ability of the monoclonal antibodies 33E10 and 35B6 to ECM proteins was detected by ELISA using 96 well plate immobilized with hOPN, mOPN, FN, VN or laminin obtained above. A 96” for “A 96”

Another experiment addresses T6, murine osteopontin (murine, UniProt P10923 17-294).
T6 construct: mature; Secreted recombinant protein; also called mOPN; murine OPN
The description is as above. On the procedure:
as §2, with “Binding ability of the monoclonal antibodies 33E10 and 35B6 to ECM proteins was detected by ELISA using 96 well plate immobilized with hOPN, mOPN, FN, VN or laminin obtained above. A 96” for “A 96”

In experiment [5] the target is T1, hOPN5 peptide CVDTYDGRGDSVVYGLRS …. Kind of experiment: ELISA, BSA-coupled peptide coated at 10 ug/ml, HRP anti-murine IgG, A490.
In the next experiment the target is T7, peptide CGRGDSLAYGLR (murine, N-terminal Cys coupled to BSA via EMCS).
T7 construct: Synthetic peptide, BSA conjugate on the ELISA plate
T7 peptide: CGRGDSLAYGLR
Described as above.

The next experiment addresses T8, peptide CGDSLAYG (murine, N-terminal Cys coupled to BSA via EMCS).
T8 construct: Synthetic peptide, BSA conjugate on the ELISA plate
T8 peptide: CGDSLAYG
The experiment is described as above.

The target in a further experiment is T9, peptide CGDSLAYGLR (murine, N-terminal Cys coupled to BSA via EMCS).
T9 peptide: CGDSLAYGLR
The experiment is described as above.

The target of experiment [6] is T10, mOPN5 peptide CVDVPNGRGDSLAYGLR (murine, N-terminal Cys coupled to BSA via EMCS (ELISA of section 6.2)).
T10 construct: BSA conjugate in section 6.2; 'antigen peptide solid phase' in the hybridoma screen of section 6.1; also called antigen peptide
T10 peptide: CVDVPNGRGDSLAYGLR
Described as above.

A further experiment concerns the target T11, peptide CSLAYGLR (murine, N-terminal Cys coupled to BSA via EMCS).
T11 construct: Synthetic peptide, BSA conjugate on the ELISA plate
T11 peptide: CSLAYGLR
Kind of experiment: ELISA, BSA-coupled peptide coated at 10 ug/ml.
Description: as §1, §2

The target in the next experiment is T12, peptide CSVVYGLR (human, N-terminal Cys coupled to BSA via EMCS).
T12 construct: Synthetic peptide, BSA conjugate on the ELISA plate
T12 peptide: CSVVYGLR
Kind of experiment: ELISA, BSA-coupled peptide coated at 10 ug/ml.
Description: as §1, §2

The target in the next experiment is T13, human vitronectin (human, UniProt P04004 20-478).
T13 construct: Bought protein; also called VN
T13 sequence (P04004 20-478 limits assumed): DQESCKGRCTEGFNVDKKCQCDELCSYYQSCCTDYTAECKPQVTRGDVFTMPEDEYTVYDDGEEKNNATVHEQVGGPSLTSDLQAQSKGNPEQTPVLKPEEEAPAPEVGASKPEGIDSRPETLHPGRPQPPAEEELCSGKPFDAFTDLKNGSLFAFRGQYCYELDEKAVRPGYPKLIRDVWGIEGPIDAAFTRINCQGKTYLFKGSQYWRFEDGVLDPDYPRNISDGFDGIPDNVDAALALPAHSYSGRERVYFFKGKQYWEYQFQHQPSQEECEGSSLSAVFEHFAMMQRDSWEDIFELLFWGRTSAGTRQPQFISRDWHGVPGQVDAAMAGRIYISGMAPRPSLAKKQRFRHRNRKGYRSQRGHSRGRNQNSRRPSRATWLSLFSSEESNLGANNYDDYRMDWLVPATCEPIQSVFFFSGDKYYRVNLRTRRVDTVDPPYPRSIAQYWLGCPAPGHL
Briefly: ELISA, protein coated at 5 ug/ml, HRP anti-murine IgG, A490. As to the method:
as §2, with “Binding ability of the monoclonal antibodies 33E10 and 35B6 to ECM proteins was detected by ELISA using 96 well plate immobilized with hOPN, mOPN, FN, VN or laminin obtained above. A 96” for “A 96”

The target in experiment [7] is T2, peptide CGRGDS. Kind of experiment: ELISA, BSA-coupled peptide coated at 10 ug/ml, HRP anti-murine IgG, A490.
Experiment [8] addresses T3, peptide CVDVPNGRGDS
The experiment is described as above.

The target of experiment [9] is T4, peptide CPNGRGD. The description is as above.

T5 sequence (P10451 17-314): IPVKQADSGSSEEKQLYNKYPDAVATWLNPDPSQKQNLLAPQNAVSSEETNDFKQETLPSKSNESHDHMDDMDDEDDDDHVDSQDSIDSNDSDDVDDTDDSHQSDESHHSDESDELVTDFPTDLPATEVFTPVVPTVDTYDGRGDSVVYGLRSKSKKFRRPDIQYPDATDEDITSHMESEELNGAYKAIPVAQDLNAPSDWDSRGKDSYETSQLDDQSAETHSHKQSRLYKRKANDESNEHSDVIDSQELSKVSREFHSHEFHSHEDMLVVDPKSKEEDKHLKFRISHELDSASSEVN
T6 sequence (P10923 17-294): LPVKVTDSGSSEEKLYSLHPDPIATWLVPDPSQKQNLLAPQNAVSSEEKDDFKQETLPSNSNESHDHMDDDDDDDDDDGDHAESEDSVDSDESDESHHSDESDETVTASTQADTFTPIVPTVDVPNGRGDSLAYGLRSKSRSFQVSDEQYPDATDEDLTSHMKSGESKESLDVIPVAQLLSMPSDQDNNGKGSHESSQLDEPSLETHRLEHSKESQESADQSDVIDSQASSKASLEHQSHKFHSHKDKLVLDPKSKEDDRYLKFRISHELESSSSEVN

B1: humanized 35B6 IgG1/kappa antibody (antibody, V domains shown)
VH: QVQLVQSGAEVKKPGASVKVSCKASGYTFTNYWMHWVRQAPGQGLEWIGNINPRNGDSNYNEKFRSKASLTVDKSTSTVYMELSSLRSEDTAVYYCARGYFDVWGQGTTVTVSS
VL: DIQMTQSPSSLSASVGDRVTITCKASQDINSYLSWFQQKPGKAPKTLIYRANRLVDGVPSKFSGSGSGQDFTLTISSLQPEDFATYYCLQYDEFPFTFGQGTKLEIK
notes: Tested as culture supernatant of transiently transfected HEK293 cells; also called Hu35B6
B1: the binding result in experiment [1] is given as “binds”.

B2: mouse anti-RGD monoclonal antibody 35B6 (FERM BP-10441) (antibody, mouse IgG1, V domains shown)
VH: QVQLQQPGTELVKPGASVKLSCKASGYTFTNYWMHWVKQRPGQGLEWIGNINPRNGDSNYNEKFRSKASLTVDKSSSTVYMQLSSLTSEDSAVYYCARGYFDVWGTGTTVTVSS
VL: DIKMTQSPSSMYASLGERVSITCKASQDINSYLSWFQQKSGKSPKTLIYRANRLVDGVPSRFSGSGSGQDFSLTISSLEYEDMGIYYCLQYDEFPFTFGSGTKLEIK
notes: Mouse IgG1 from hybridoma
As to B2, the binding result with peptide CGRGDS [2] is “no binding”; with peptide CVDVPNGRGDS [3], “no binding”; in the experiment with peptide CPNGRGD [4], “no binding”; in the experiment with human osteopontin, “binds”; with murine osteopontin, “binds”; in experiment [5], “binds”. The binding result (in the experiment with peptide CGRGDSLAYGLR; with peptide CGDSLAYG; with peptide CGDSLAYGLR; in experiment [6]) was “binds” throughout.

B3: chimeric 35B6 IgG1/kappa antibody (antibody, V domains shown)
VH: QVQLQQPGTELVKPGASVKLSCKASGYTFTNYWMHWVKQRPGQGLEWIGNINPRNGDSNYNEKFRSKASLTVDKSSSTVYMQLSSLTSEDSAVYYCARGYFDVWGTGTTVTVSS
VL: DIKMTQSPSSMYASLGERVSITCKASQDINSYLSWFQQKSGKSPKTLIYRANRLVDGVPSRFSGSGSGQDFSLTISSLEYEDMGIYYCLQYDEFPFTFGSGTKLEIK
notes: Tested as culture supernatant of transiently transfected HEK293 cells; also called Ch35B6
Consider B3, for which the binding result in experiment [1] is given as “binds”.

B4: mouse anti-RGD monoclonal antibody 33E10 (FERM BP-10440) (antibody, mouse IgG1, V domains shown)
VH: EVKLVESGGGLVQPGGSLSLSCAASGFTFTDYYMIWVRQPPGKALEWLGFIRNKANGYTTEYSASVKGRFTISRDNSQSILYLQMNALRAEDSATYYCARGAYWGQGTLVTVSA
VL: DVLMTQTPLSLPVSLGDQASISCRSSQSIVHSNGNTYLEWYLQKPGQSPKLLIYRVSNRFSGVPDRFSGSGSGTDFTLKISRVEAEDLGVYYCFQGSFVPWTFGGGTKLEIK
notes: Mouse IgG1 from hybridoma, purified on an antigen peptide column
With B4, the binding result with peptide CSLAYGLR is “no binding”; with peptide CSVVYGLR, “no binding”; in the experiment with human osteopontin it was “binds”; with murine osteopontin, “binds”; in the experiment with human vitronectin, “binds”; in experiment [5], “binds”. Further, the binding result (with peptide CGRGDS [7]; with peptide CVDVPNGRGDS [8]; with peptide CPNGRGD [9]; in experiment [6]) was “binds” in each case.
